# Reference: patent publication US20250145926A1, “DEVICES, METHODS, AND SYSTEMS FOR ASSESSING CELL MIGRATION AND RELATED PROCESSES” (University of Washington, priority 2023, published 2025)
# B1: Galvanin: single-pass transmembrane protein (161 amino acids, UniProt ID: Q6P9G4), electric field sensor (protein)
# chain: NYEELENSGDTTVESERPNKVTIPSTFAAVTIKETLNANINSTNFAPDENQLEFILMVLIPLILLVLLLLSVVFLATYYKRKRTKQEPSSQGSQSALQTYELGSENVKVPIFEEDTPSVMEIEMEELDKWMNSMNRNADFECLPTLKEEKESNHNPSDSES
# System: differentiated HL-60 neutrophils
# Assay: vE/D ratio and ectodomain charge estimation, under-agarose cells immobilized with Latrunculin A in an electric field
# Type: cell-based, human
# Settings: averaged across all electric field conditions; ± SEM
# Procedure: Experimental Setup. Cells were resuspended to a concentration of 2×10^6 cells/ml in L-15 Medium with 10% hiFBS. With an ibiTreat μ-Slide-I (Ibidi, #80106) placed on a 37° C. heat block, 100 μL of cells were added to the channel and incubated for 5 minutes to allow them to sediment and loosely adhere to the bottom coverslip. Warm, liquid 2.5% UltraPure low melting point agarose (Invitrogen of Waltham, MA, #16520-050) in L-15 with 10% hiFBS was added to one channel reservoir and then centrifuged at 28-37° C. for 5 min at 700 g. This was performed in a custom 3D-printed swinging bucket rotor plate adaptor (design available upon request). Immediately after centrifugation, the slide was incubated on a 20° C. cooling plate (STIR-KOOL, Ladd Research of Essex Junction, VT; #SK-12D-AW) for 5 minutes to gel. […] L-15 media with 10% hiFBS was added to both reservoirs. […]
# Quantification of vE/D Ratio and Estimation of Charge. […] Under the imaging conditions (800 nm axial resolution), the measured fluorescence intensities will reflect fluorescence predominantly at this surface, and the biological system is treated as a flat two-dimensional surface. […]
molecule,measurement,value
B1,net charge estimated from vE/D,−18 e
